{
  "source": "patent US20150329644A1",
  "about": "(BRIGHAM AND WOMEN S HOSPITAL, published 2015)",
  "binders": {"B1": {"name": "NPAC linker region (residues 152-268), as used for co-crystallization (other)", "chain": "SERGSKSPLKRAQEQSPRKRGRPPKDEKDLTIPESSTVKGMMAGPMAAFKWQPTASEPVKDADPHFHHFLLSQTEKPAVCYQAITKKLKICEEETGSTSIQAADSTAVNGSITPTDK", "notes": "Expressed with His6 and GST tags that were removed by 3C protease"}},
  "molecular_target": "T1, Human LSD2 (residues 51-822) with N-terminal extra residues GPGS, as used for co-crystallization (human, UniProt Q8NB78 51-822)",
  "T1 construct": "range 51-822; Construct of the LSD2-NPAC (PDB 4GUT) and LSD2-NPAC-H3K4M (PDB 4GUS, 4GUR) co-crystals; also called KDM1b; AOF1",
  "T1 sequence": "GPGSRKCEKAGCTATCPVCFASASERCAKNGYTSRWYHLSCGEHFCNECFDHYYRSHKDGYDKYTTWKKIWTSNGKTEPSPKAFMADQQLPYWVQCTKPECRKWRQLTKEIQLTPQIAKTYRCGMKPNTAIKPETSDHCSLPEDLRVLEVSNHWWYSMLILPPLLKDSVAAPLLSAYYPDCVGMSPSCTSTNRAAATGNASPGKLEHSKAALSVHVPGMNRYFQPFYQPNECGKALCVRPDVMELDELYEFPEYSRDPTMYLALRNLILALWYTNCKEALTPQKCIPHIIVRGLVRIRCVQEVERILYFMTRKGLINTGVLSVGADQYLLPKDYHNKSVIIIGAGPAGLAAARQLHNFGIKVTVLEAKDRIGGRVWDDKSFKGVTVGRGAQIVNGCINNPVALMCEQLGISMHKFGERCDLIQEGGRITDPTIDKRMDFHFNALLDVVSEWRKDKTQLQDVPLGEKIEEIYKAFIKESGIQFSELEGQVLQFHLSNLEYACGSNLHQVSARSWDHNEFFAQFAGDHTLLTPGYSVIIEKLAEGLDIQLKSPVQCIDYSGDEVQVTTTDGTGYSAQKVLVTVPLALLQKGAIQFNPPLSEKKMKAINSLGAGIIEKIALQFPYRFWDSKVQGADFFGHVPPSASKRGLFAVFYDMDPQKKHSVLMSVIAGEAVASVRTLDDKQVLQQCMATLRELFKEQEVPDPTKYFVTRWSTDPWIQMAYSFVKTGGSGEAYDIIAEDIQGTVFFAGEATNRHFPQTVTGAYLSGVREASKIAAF",
  "test": "co-crystal structures of LSD2 with the NPAC linker region (residues 152-268)",
  "description": "Crystallization and Data Collection. All crystals were grown using the hanging-drop vapor diffusion method. […] All crystals were examined on X8 Proteum system (Bruker AXS) and data sets were collected on beamline BL17U at Shanghai Synchrotron Radiation Facility (Shanghai, China).",
  "data": [
    {"binder": "B1", "values": [
      {"measurement": "binding result", "result": "binds"}
    ]}
  ]
}
